For this assay, the target named is B-domain-deleted human coagulation factor VIII (human) (UniProt P00451). In words: cell-based or functional assay.
Sequence of UniProt P00451 (P00451 other isoform, or with tags, fused parts or gaps limits assumed): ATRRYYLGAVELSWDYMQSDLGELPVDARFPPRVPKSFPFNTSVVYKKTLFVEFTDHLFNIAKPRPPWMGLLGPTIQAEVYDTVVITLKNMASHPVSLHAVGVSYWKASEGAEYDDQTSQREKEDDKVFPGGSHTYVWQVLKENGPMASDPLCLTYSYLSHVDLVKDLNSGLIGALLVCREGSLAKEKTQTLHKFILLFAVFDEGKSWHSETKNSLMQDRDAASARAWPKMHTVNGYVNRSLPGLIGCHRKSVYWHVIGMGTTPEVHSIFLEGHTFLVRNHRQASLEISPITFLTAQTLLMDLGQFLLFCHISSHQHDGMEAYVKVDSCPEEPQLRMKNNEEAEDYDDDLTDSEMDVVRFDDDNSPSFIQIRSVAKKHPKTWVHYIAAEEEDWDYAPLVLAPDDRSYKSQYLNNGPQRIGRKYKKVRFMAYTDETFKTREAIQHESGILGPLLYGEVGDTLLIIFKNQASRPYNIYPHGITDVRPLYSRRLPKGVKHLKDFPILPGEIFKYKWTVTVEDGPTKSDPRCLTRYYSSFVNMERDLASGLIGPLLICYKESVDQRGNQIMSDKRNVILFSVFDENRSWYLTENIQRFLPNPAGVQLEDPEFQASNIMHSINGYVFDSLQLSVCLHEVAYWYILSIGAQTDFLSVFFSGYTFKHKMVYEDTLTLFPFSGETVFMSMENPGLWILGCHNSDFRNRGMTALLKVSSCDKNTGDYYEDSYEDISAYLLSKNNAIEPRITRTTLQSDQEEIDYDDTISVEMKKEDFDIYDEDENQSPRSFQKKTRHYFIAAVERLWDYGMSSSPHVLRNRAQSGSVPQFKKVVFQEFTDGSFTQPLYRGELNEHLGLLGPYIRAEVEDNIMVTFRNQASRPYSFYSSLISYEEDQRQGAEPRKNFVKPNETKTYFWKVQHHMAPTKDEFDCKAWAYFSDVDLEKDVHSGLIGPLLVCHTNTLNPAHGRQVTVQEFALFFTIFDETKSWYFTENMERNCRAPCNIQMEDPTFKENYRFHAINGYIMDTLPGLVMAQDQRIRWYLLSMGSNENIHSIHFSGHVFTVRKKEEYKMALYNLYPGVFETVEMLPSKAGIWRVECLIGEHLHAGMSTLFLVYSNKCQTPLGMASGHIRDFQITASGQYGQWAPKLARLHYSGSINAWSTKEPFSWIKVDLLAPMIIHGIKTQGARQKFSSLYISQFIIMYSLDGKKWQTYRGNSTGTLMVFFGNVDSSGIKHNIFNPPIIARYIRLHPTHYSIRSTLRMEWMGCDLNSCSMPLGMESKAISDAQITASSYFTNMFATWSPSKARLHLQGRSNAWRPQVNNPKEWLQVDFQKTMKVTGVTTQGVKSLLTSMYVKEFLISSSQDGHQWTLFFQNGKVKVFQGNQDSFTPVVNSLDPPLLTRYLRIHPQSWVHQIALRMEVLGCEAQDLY

Take “mutant von Willebrand factor vWF28 (exons 29-46 of vWF deleted) (from UniProt P04275 23-2813)”: the FVIII activity (chromogenic assay) in supernatant of 293T cells co-transfected with pREP7-BDD.FVIII and pRex28 was 107; the FVIII activity in supernatant of K562 cells co-transduced with vBDD.FVIII and vEx28 at a MOI of 1.5 stood at 53.3.
In the case of “mutant von Willebrand factor vWF23 (exons 24-46 of vWF deleted) (from UniProt P04275 23-2813)”, the FVIII activity (chromogenic assay) in supernatant of 293T cells co-transfected with pREP7-BDD.FVIII and pRex23 amounted to 28.9; the FVIII activity in supernatant of K562 cells co-transduced with vBDD.FVIII and vEx23 at a MOI of 1.5 was found to be 33.9.
For the substance “full length von Willebrand factor (vWF) (from UniProt P04275 23-2813)”, the FVIII activity (chromogenic assay) in supernatant of 293T cells co-transfected with pREP7-BDD.FVIII and pRex52 was 199; the FVIII activity in supernatant of K562 cells co-transduced with vBDD.FVIII and vEx52 at a MOI of 1.5 amounted to 28.3.

Values taken from patent publication US20100183556A1.
